Data from patent publication US7838495B2, “Compositions and methods of use of EPB1, and ErbB3 binding protein” (University of Maryland, Baltimore, priority 2007, dated 2010).

What was measured:
[1] = tested on: MCF-7 cells; test: HRG-induced MAPK and AKT phosphorylation in MCF-7 transfectants; type: cell-based, human; conditions: EBP1 overexpressing MCF-7 cells
Protocol: FIG. 11A-C. Ebp1 affects HRG-induced downstream signaling pathways. Serum starved MCF-7 vector control (CMV) or EBP1 transfected cells (Ebp1) cells were stimulated with HRG (20 ng/ml) for the indicated times. Cells lysates were blotted with antibodies to (A) phosphor MAPK and total MAPK or (B) phospho-Akt or total AKT. Data are representative of three experiments. […] Eight hours after transfection, cells were refed with media with 2% serum and the indicated concentrations of HRG. Growth was assessed by MTT assay 3 days later. Data are representative of two experiments.
2.5. Western blot analysis. Total cell extracts were prepared by direct lysis of cells with lysis buffer [50 mM Tris-HCl (pH 7.4), 1 mM EDTA, 250 mM NaCl, 1% Triton X-100, 0.5 mM DTT, and 1× Complete™ protease inhibitor]. Protein concentrations were measured using a detergent compatible kit (Bio-Rad). Proteins (30 lg per well) were resolved by SDS-PAGE, transferred to PVDF membranes, and immunoblotted as described. […] Images were quantified using IMAGE-J software (NIH). […] Relative cell numbers were determined 4 days later using a Promega Proliferation Reagent as per manufacturer's instructions with absorbance being read at 490 nm using a Dynex plate reader. […] Data were analyzed using a two-tailed Students t-test and a p <0.05 was deemed statistically significant. […]

[2] = tested on: androgen-responsive genes; test: Microarray gene expression profiling of LNCaP cells stably transfected with EBP1; type: cell-based, human; conditions: EPB1-overexpressing LNCaP cells vs controls
Protocol: Microarray Analysis: First and second strand cDNA were synthesized from 5-15 μg of total RNA at Genome Explorations (Nashville, Tenn.) using the SuperScript Double-Stranded cDNA Synthesis Kit (Gibco Life Technologies, Gaithersburg, Md.) and an oligo-dT24-T7 (5′-GGCCAGTGAATTGTAATACGACTCACTATAGGGAGGCGG-3′) (SEQ ID NO: 3) primer according to the manufacturer's instructions. cRNA was synthesized labeled with biotinylated UTP and CTP by in vitro transcription using the T7 promoter-coupled, double-stranded cDNA as template and the T7 RNA Transcript Labeling Kit (ENZO Diagnostics Inc., Farmingdale, N.Y.). The fragmented cRNA was hybridized for U133A oligonucleotide arrays (Affymetrix, Santa Clara, Calif.) containing ˜33,000 full-length annotated genes, together with additional probe sets designed to represent EST sequences. The arrays were then stained with phycoerythrein-conjugated streptavidin (Molecular Probes, Eugene, Oreg.), and the fluorescence intensities were determined using a laser confocal scanner (Hewlett-Packard, Palo Alto, Calif.). The scanned images were analyzed using Microarray software (Affymetrix). Sample loading and variations in staining were standardized by scaling the average of the fluorescent intensities of all genes on an array to constant target intensity for all arrays used. The signal intensity for each gene was calculated as the average intensity difference, represented by [E(PM−MM)/(number of probe pairs)], where PM and MM denote perfect-match and mismatch probes. Data analysis was conducted using Microarray Suite 5.0 (Affymetrix) following user guidelines. Only genes with a minimum expression level of 500 were included in this analysis. […] AR-regulated genes include the Androgen Receptor (AR), PSA (kallikrein 3), Kallikrein 2, POV-1, TMPRSS2, and prostate-derived factor.
Ectopic expression of EPB1 downregulates androgen-regulated genes: Gene expression profiling of LNCaP cells stably transfected with EBP1 was used to determine the range of androgen-dependent genes affected by EPB1 overexpression. These cells overexpress EPB1 protein between two- and three-fold (Zhang et al., 2002, Repression of Androgen Receptor Mediated Transcription by the ErbB-3 Binding Protein EPB1, Oncogene, 21: 5609-5618). Changes in gene expression were measured using microarray analysis of 33,000 transcripts on the Affymetrix U133A chip. To compile a list of differentially regulated genes, only those genes that were activated or repressed at least 3-fold (p<0.05, 500 minimum expression units) were included. […] Forty-one genes were induced and 126 were repressed. Seventy-two of these genes have HUGO approved names. […] These include the Androgen Receptor (3.7 fold decrease), PSA (3.7 fold decrease) as previously reported (Zhang et al., 2002, Repression of Androgen Receptor Mediated Transcription by the ErbB-3 Binding Protein EPB1, Oncogene, 21: 5609-5618), Kallikrein 2 (3.2 fold decrease), POV-1 (5.0 fold decrease), TMPRSS2 (3.2 fold decrease), and prostate-derived factor (3.2 fold decrease). The Kallikrein 2 gene is regulated by AR, predominantly expressed in prostate tissue, secreted by LNCaP cells, and 78% homologous to PSA. […] The TMPRSS2 gene is androgen-regulated and also highly expressed in prostate and prostate cancer (Afar et al., 2001, Catalytic Cleavage of the Androgen-Regulated TMPRSS2 Protease Results in its Secretion by Prostate and Prostate Cancer Epithelia, Cancer Res., 61:1686-1692).

B1: EBP1: ErbB3 binding protein (SEQ ID NO: 2), AR corepressor, here ectopically expressed in cancer cells by stable transfection of an expression plasmid (protein, listed as Homo sapiens)
chain: MSGEDEQQEQTIAEDLVVTKYKMGGDIANRVLRSLVEASSSGVSVLSLCEKGDAMIMEETGKIFKKEKEMKKGIAFPTSISVNNCVCHFSPLKSDQDYILKEGDLVKIDLGVHVDGFIANVAHTFVVDVAQGTQVTGRKADVIKAAHLCAEAALRLVKPGNQNTQVTEAWNKVAHSFNCTPIEGMLSHQLKQHVIDGEKTIIQNPTDQQKKDHEKAEFEVHEVYAVDVLVSSGEGKAKDAGQRTTIYKRDPSKQYGLKMKTSRAFFSEVERRFDAMPFTLRAFEDEKKARMGVVECAKHELLQPFNVLYEKEGEFVAQFKFTVLLMPNGPMRITSGPFEPDLYKSEMEVQDAELKALLQSSASRKTQKKKKKKASKTAENATSGETLEENEAGD
modifications: FLAG tag
For B1, the “basal MAPK phosphorylation” value [1] was “constitutively phosphorylated”, the “Androgen Receptor expression, fold decrease” value [2] was 3.7 fold and the “Kallikrein 2 expression, fold decrease” value [2] was 3.2 fold. The “POV-1 expression, fold decrease” value [2] was 5.0 fold, the “PSA expression, fold decrease” value [2] was 3.7 fold and the “TMPRSS2 expression, fold decrease” value [2] was 3.2 fold. The “prostate-derived factor expression, fold decrease” value [2] was 3.2 fold.
